Measurements from article PMC8885854, “Targeting macrophage TFEB-14-3-3 epsilon Interface by naringenin inhibits abdominal aortic aneurysm” (Cell Discovery, 2022).
Blank lines part the entries; values can stand above or below the molecule they belong to. Primed or numbered codes have the meaning given here. Where no end group is shown, it is not given here. [ ]: non-standard residue; d: D form. pS = N[C@@H](COP(=O)(O)O)C(=O)O; FITC′ = not defined here

Tests used:
[1] = target: T1, 14-3-3 epsilon (14-3-3ε, YWHAE) (Mus musculus, UniProt P62259); assay: ITC with purified protein; supported by CETSA/ITDRF-CETSA in macrophage lysates and FP displacement of p-TFEB peptide (IC50 […]); type: binding
T1 construct: full-length mouse 14-3-3ε, His-tagged, from Sf9 cells
T1 sequence (P62259 1-255): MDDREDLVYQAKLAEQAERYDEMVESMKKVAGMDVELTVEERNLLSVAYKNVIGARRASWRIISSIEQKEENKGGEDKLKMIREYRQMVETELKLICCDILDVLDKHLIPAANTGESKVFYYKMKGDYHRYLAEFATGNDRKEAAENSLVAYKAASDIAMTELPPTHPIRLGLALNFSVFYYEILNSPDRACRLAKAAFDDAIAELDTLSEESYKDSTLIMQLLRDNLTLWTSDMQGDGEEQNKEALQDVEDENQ

[2] = target: T2, His-14-3-3ε (full-length mouse 14-3-3ε, purified) (mouse, UniProt P62259 1-255); assay: fluorescence polarisation; direct binding: His-14-3-3ε serially diluted (1-4000 nM) against FITC-labelled peptide (10 nM solution); 25 mM HEPES pH 7.5, 100 mM NaCl, 1 mg/ml BSA, 0.05% CHAPS; 60 min at 25 °C; conditions: both partners purified
T2 construct: 14-3-3 epsilon, mouse, full length; also called 14-3-3 epsilon; 14-3-3ɛ; source: Sf9 (Bac-to-Bac baculovirus), purified (Ni-NTA), at least 70% pure
T2 sequence (looked up): T1 sequence (P62259 1-255)

Molecule: O=C1C[C@@H](c2ccc(O)cc2)Oc2cc(O)cc(O)c21 [NGN, naringenin]
- Kd [1]: 30600 ± 7990 nM

- Kd [2]: 2.4 nM
B1: control phosphor-peptide (p-control peptide, MARSHpSYPAKKK) with C-terminal FITC (peptide)
peptide: MARSH[pS]YPAKKK-{FITC′}
notes: control phosphopeptide with the conventional 14-3-3 motif RSXpSXP; source: synthetic peptide

- Kd [2]: 9.68 nM
B2: phosphorylated TFEB peptide (p-TFEB peptide, LVGVTSSpSCPADLTQ) with C-terminal FITC (peptide)
peptide: LVGVTSS[pS]CPADLTQ-{FITC′}
notes: also called p-TFEB-FITC; source: synthetic peptide
